Molecular target: DnaK D45C-biotin (E. coli, UniProt P0A6Y8 1-638, D45C, biotin (labeled with a 20-fold excess of Maleimide-PEG11-Biotin))
Assay: pull-down

B1: CbpA (natural protein, E. coli, UniProt P36659 1-306, looked up)
chain: MELKDYYAIMGVKPTDDLKTIKTAYRRLARKYHPDVSKEPDAEARFKEVAEAWEVLSDEQRRAEYDQMWQHRNDPQFNRQFHHGDGQSFNAEDFDDIFSSIFGQHARQSRQRPATRGHDIEIEVAVFLEETLTEHKRTISYNLPVYNAFGMIEQEIPKTLNVKIPAGVGNGQRIRLKGQGTPGENGGPNGDLWLVIHIAPHPLFDIVGQDLEIVVPVSPWEAALGAKVTVPTLKESILLTIPPGSQAGQRLRVKGKGLVSKKQTGDLYAVLKIVMPPKPDENTAALWQQLADAQSSFDPRKDWGKA
binding result: binds
